Test results reported in patent US20090062187A1, “Use of Hmgb1 for Wound Healing” (priority 2004, published 2009).
“Also recorded” adds a separate entry of the source.

B1: HMGB1 (protein, UniProt P09429 1-215, looked up)
High mobility group protein B1: MGKGDPKKPRGKMSSYAFFVQTCREEHKKKHPDASVNFSEFSKKCSERWKTMSAKEKGKFEDMAKADKARYEREMKTYIPPKGETKKKFKDPNAPKRPPSAFFLFCSEYRPKIKGEHPGLSIGDVAKKLGEMWNNTAADDKQPYEKKAAKLKEKYEKDIAAYRAKGKPDAAKKGVVKAEKSKKKKEEEEDEEDEEDEEEEEDEEDEDEEEDDDDE
notes: purified protein; cytokine released from monocyte-macrophage and necrotic cells, ligand of RAGE

Columns and labels:
normal CD1 mice = test: Wound closure after full-thickness excised wound in normal CD1 mice; format: in vivo; details: for wound area reduced by % of the initial size / wound closure / healing rate vs vehicle: normal mice; for wound area reduced by % of the initial size: GL 250 μg/mouse topically every two days; for wound closure / healing rate vs vehicle: GL 250 μg/mouse topically in wound area
diabetic CD1 mice = test: Wound closure after full-thickness excised wound in streptozotocin-diabetic CD1 mice; format: in vivo
Method: CD1 male mice were obtained from Charles River (Calco, LC, Italy). Mice were rendered diabetic by intraperitoneal injection of streptozotocin (Sigma-Aldrich, St Louis, Mo., USA) at 1.2 mg/30 g weight/day for 5 consecutive days. After 7 days, glycemia was measured and animals with glycemia of 200 to 400 mg/dl were selected for further studies. Mice were anesthetized with intraperitoneal injection of 2.5% Avertin (100% Avertin: 10 g of 2,2,2-tribromoethyl alcohol and 10 ml of tert-amyl alcohol, Sigma). Their dorsum was clipped free of hair and a full thickness wound of 3.5 mm diameter was created using a biopsy punch.
HMGB1 treatment was performed directly in the wound area by injecting 200 ng, 400 ng or 800 ng of purified protein (13) in 20 μl of saline solution at time immediately after wound. Control groups received 20 μl of saline solution in the wound. Glycyrrhyzin, GL (12) was administered topically in the wound area every two days from day 0 to day 14 after wound creation. The concentration used for each administration was 250 μg/mouse in 30 μl of PBS. Control mice received vehicle (PBS).
Animals were photographed at day 0, 3, 5, 6, 7, 10, and 14 after wound. Pictures were digitally processed and areas of wounds were calculated using the KS300 system (Zeiss, Jena GmbH, Germany). For each sample the percentage of wound closure was calculated as the ratio: […]
Where time 0 is the time immediately after the wound. The groups included 6 to 10 animals. Results are presented as mean±standard error. Statistical significance between two measurements was evaluated by unpaired Student's t test.

normal human fibroblasts = test: Chemotaxis assay (modified Boyden chamber), normal human fibroblasts; format: cell-based; details: HMGB1 200 ng/ml
Method: (§1) FIG. 9: Effect of HMGB1 on human fibroblasts and keratinocytes migration. Normal (A) and diabetic (B) fibroblasts were obtained from human biopsies. 0.4×10^6 cells/ml were placed in upper compartment of the modified Boyden chambers. HMGB1 (200 ng/ml) or PDGF (15 ng/ml) was added to the lower compartment and incubated for 6 hrs at 37° C. (C) Hacat cells were obtained from ATCC and migration experiments performed as described in (A-B). After staining with Giemsa solution, migrated cells were quantified by counting nuclei in five random microscope fields (40×). The data are expressed as migration index (fold increase in number of migrated cells relative to number of migrated cells in the absence of HMGB1 or PDGF) and are mean±SD of at least 4 independent experiments performed in triplicate. Statistical significance was evaluated by unpaired Student's t test. […]
(§2) The lower compartment of each chamber was filled with 28 μl DMEM with 0.1% BSA. […] Cells on five random fields on the lower face of the filter were counted at 40× magnification and migration index was calculated by dividing the number of migrated cells in the presence of chemoattractants by the cells migrated in response to DMEM with 0.1% BSA.

[1] = tested on: diabetic human fibroblasts; test: Chemotaxis assay (modified Boyden chamber), diabetic human fibroblasts; format: cell-based; details: HMGB1 200 ng/ml
Method: as §1, §2

[2] = tested on: keratinocytes (HaCat cell line); test: Chemotaxis assay (modified Boyden chamber), keratinocytes; format: cell-based, human; details: HMGB1 200 ng/ml
Method: FIG. 9: Effect of HMGB1 on human fibroblasts and keratinocytes migration. Normal (A) and diabetic (B) fibroblasts were obtained from human biopsies. 0.4×10^6 cells/ml were placed in upper compartment of the modified Boyden chambers. HMGB1 (200 ng/ml) or PDGF (15 ng/ml) was added to the lower compartment and incubated for 6 hrs at 37° C. (C) Hacat cells were obtained from ATCC and migration experiments performed as described in (A-B). After staining with Giemsa solution, migrated cells were quantified by counting nuclei in five random microscope fields (40×). The data are expressed as migration index (fold increase in number of migrated cells relative to number of migrated cells in the absence of HMGB1 or PDGF) and are mean±SD of at least 4 independent experiments performed in triplicate. Statistical significance was evaluated by unpaired Student's t test.
Hacat human cells were obtained according to (14). […]
as §2

Molecule | wound area reduced by % of the initial size (normal CD1 mice; day 3) [%] | wound area reduced by % of the initial size (normal CD1 mice; day 5) [%] | wound area reduced by % of the initial size (normal CD1 mice; day 6) [%] | wound area reduced by % of the initial size (normal CD1 mice; day 7) [%] | wound closure / healing rate vs vehicle (normal CD1 mice) | wound closure / healing rate vs vehicle (normal CD1 mice; listed as glycyrrhizin) | wound closure vs saline (diabetic CD1 mice; glycyrrhizin 250 μg in the wound area) | wound closure (normal CD1 mice; normal CD1 mice, HMGB1 200 ng in 20 μl injected in wound area immediately after wounding, vs saline) | percentage of wound closure (normal CD1 mice; normal CD1 mice, HMGB1 200 ng, day 3 after wounding) [%] | percent of wound closure vs saline (normal CD1 mice; normal CD1 mice, HMGB1 200 ng, day 5, p<0.03) | percentage of wound closure (diabetic CD1 mice; HMGB1 200 ng, day 3 after wounding) [%] | percentage of wound closure (diabetic CD1 mice; HMGB1 200 ng, day 5) [%] | percentage of wound closure (diabetic CD1 mice; HMGB1 200 ng, day 6) [%] | healing rate vs saline (diabetic CD1 mice; HMGB1 200 ng, p<0.03) | complete wound closure evident by (diabetic CD1 mice; HMGB1 200 ng, same in saline group) [days] | wound closure compared to lower dose (200 ng) (diabetic CD1 mice; HMGB1 400 ng in 20 ul, 3 days after wounding) | wound closure compared to dose of 200 ng (diabetic CD1 mice; HMGB1 800 ng) | chemotactic effect (migration) (normal human fibroblasts) | chemotactic effect (migration) [1] | chemotactic effect (migration) [2]
CC1(C)[C@@H](O[C@H]2O[C@H](C(=O)O)[C@@H](O)[C@H](O)[C@H]2O[C@@H]2O[C@H](C(=O)O)[C@@H](O)[C@H](O)[C@H]2O)CC[C@]2(C)[C@H]3C(=O)C=C4[C@@H]5C[C@@](C)(C(=O)O)CC[C@]5(C)CC[C@@]4(C)[C@]3(C)CC[C@@H]12 [GL, Glycyrrhizin] | 15±3.5 | 38.7±6 | 61.2±5.9 | 73.3±4.5 | slowed down wound closure | significantly lower | No significant differences; also recorded: did not significantly modify wound closure | – | – | – | – | – | – | – | – | – | – | – | – | –
B1 | – | – | – | – | – | – | – | increased wound closure | 30.5±8.5 | significantly higher | 47.5±15.8 | 66.5±13 | 72.2±9 | significantly higher | ≤ 14 | larger wound closure | same effect | exhibited a chemotactic effect | exhibited a chemotactic effect | exhibited a chemotactic effect
